According to patent US20150196651A1 (published 2015):
Blank lines part the entries; values can stand above or below the binder they belong to. Square brackets hold non-standard residues; d marks the D form. Ends that are not written are not given here. * marks the point of attachment. Palmitoyl = CCCCCCCCCCCCCCCC(=O)*; Myristoyl = CCCCCCCCCCCCCC(=O)*; Nle = CCCC[C@H](N)C(=O)O; NOMe = CON*

Key:
[1] = target: T1, rat PrRP receptor in RC-4B/C cells (rat, UniProt Q64121 1-370); assay: competition with 125I-rat PrRP31, RC-4B/C cells
T1 construct: whole, on cells; endogenous receptor of RC-4B/C cells (ATCC); also called rat receptor; GPR10 receptor expressed in rat hypophyseal cells
T1 sequence (looked up): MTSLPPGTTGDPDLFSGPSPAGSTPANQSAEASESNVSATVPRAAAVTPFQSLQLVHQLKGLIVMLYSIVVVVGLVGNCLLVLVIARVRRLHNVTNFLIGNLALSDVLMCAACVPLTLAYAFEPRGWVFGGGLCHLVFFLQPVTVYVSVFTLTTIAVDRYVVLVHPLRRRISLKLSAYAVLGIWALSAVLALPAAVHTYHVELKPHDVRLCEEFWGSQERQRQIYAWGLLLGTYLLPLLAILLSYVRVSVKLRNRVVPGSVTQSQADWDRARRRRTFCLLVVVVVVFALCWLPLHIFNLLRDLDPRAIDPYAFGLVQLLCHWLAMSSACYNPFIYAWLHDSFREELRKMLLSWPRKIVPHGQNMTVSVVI
Protocol: The rat pituitary cell line RC-4B/C (ATCC, Manassas, USA) was grown on 24-well plates which had their bottom coated with polyethyleneimine. The cells were grown to the optimal density of 300-450 thousand cells per well.
(§1) Plates were incubated for 60 minutes at room temperature. After incubation, the cells were solubilized in 0.1 mol/l solution of NaOH, and the radioactivity bound to the cells was counted using a γ-counter. The experiments were performed in duplicate, and repeated at least three times.

[2] = target: T2, human PrRP receptor GPR10 (human, UniProt P49683 1-370); assay: competition with 125I-human PrRP31, CHO cells with human GPR10
T2 construct: whole, on cells; also called GPR10 human receptor transfected in CHO cells; human GPR10 receptor
T2 sequence (looked up): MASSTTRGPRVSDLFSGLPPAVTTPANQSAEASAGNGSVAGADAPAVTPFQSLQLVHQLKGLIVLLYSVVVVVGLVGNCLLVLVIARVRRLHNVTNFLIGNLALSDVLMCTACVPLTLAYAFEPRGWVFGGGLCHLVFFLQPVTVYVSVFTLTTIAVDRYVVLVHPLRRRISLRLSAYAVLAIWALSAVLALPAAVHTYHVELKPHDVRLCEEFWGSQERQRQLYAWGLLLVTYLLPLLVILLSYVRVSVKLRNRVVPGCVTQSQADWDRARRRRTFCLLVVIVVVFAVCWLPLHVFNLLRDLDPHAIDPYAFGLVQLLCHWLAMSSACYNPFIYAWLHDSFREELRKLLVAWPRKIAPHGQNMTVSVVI
Protocol: CHO cells transfected with human PrRP receptor GPR10 (Perkin Elmer, USA) were grown on 24-well plates coated with polyethyleneimine. […] The following agents were used for the experiment: binding buffer (25 mmol.1⁻¹ Tris, pH 7.4; 118 mmol.1⁻¹ NaCl, 10 mmol.1⁻¹ MgCl₂, 1 mmol.1⁻¹ CaCl₂, 5.5 mmol.1⁻¹ glucose, 0.5 mg/ml BSA), unlabeled analogs of PrRP (i.e. the analog being tested) at a final concentration between 10⁻¹¹ to 10⁻⁴ mol.1⁻¹, and radiolabeled human ¹²⁵1-PrRP31 at a final concentration of 5×10⁻¹¹ mol.1⁻¹.
as §1

B1: analog no. 19 (peptide)
peptide: SHQRPADTHWYPRG[Nle]FPTIGRITARNGEVSR
notes: scrambled peptide; also called 19 scram
- % of PrRP31 [1]: 4e-05%
- Ki [1]: 1320 µM

B3: analog no. 44 (peptide)
peptide: Palmitoyl-SRTHRHSMEIRTPDINPAWYASRGIRPVGRF-NHMe
SMILES: CCCCCCCCCCCCCCCC(=O)N[C@@H](CO)C(=O)N[C@@H](CCCNC(=N)N)C(=O)N[C@H](C(=O)N[C@@H](Cc1c[nH]cn1)C(=O)N[C@@H](CCCNC(=N)N)C(=O)N[C@@H](Cc1c[nH]cn1)C(=O)N[C@@H](CO)C(=O)N[C@@H](CCSC)C(=O)N[C@@H](CCC(=O)O)C(=O)N[C@H](C(=O)N[C@@H](CCCNC(=N)N)C(=O)N[C@H](C(=O)N1CCC[C@H]1C(=O)N[C@@H](CC(=O)O)C(=O)N[C@H](C(=O)N[C@@H](CC(N)=O)C(=O)N1CCC[C@H]1C(=O)N[C@@H](C)C(=O)N[C@@H](Cc1c[nH]c2ccccc12)C(=O)N[C@@H](Cc1ccc(O)cc1)C(=O)N[C@@H](C)C(=O)N[C@@H](CO)C(=O)N[C@@H](CCCNC(=N)N)C(=O)NCC(=O)N[C@H](C(=O)N[C@@H](CCCNC(=N)N)C(=O)N1CCC[C@H]1C(=O)N[C@H](C(=O)NCC(=O)N[C@@H](CCCNC(=N)N)C(=O)N[C@@H](Cc1ccccc1)C(=O)NC)C(C)C)[C@@H](C)CC)[C@@H](C)CC)[C@@H](C)O)[C@@H](C)CC)[C@@H](C)O
- % of PrRP31 [2]: 123%

B4: analog no. 46 (peptide)
peptide: Myristoyl-SRAHQHSMETRTPDINPAWYTGRGIRPVGRF-NH2
SMILES: CCCCCCCCCCCCCC(=O)N[C@@H](CO)C(=O)N[C@@H](CCCNC(=N)N)C(=O)N[C@@H](C)C(=O)N[C@@H](Cc1c[nH]cn1)C(=O)N[C@@H](CCC(N)=O)C(=O)N[C@@H](Cc1c[nH]cn1)C(=O)N[C@@H](CO)C(=O)N[C@@H](CCSC)C(=O)N[C@@H](CCC(=O)O)C(=O)N[C@H](C(=O)N[C@@H](CCCNC(=N)N)C(=O)N[C@H](C(=O)N1CCC[C@H]1C(=O)N[C@@H](CC(=O)O)C(=O)N[C@H](C(=O)N[C@@H](CC(N)=O)C(=O)N1CCC[C@H]1C(=O)N[C@@H](C)C(=O)N[C@@H](Cc1c[nH]c2ccccc12)C(=O)N[C@@H](Cc1ccc(O)cc1)C(=O)N[C@H](C(=O)NCC(=O)N[C@@H](CCCNC(=N)N)C(=O)NCC(=O)N[C@H](C(=O)N[C@@H](CCCNC(=N)N)C(=O)N1CCC[C@H]1C(=O)N[C@H](C(=O)NCC(=O)N[C@@H](CCCNC(=N)N)C(=O)N[C@@H](Cc1ccccc1)C(N)=O)C(C)C)[C@@H](C)CC)[C@@H](C)O)[C@@H](C)CC)[C@@H](C)O)[C@@H](C)O
- % of PrRP31 [1]: 657%
- Ki [1]: 0.00075 µM

B6: Human PrRP20 (peptide)
peptide: TPDINPAWYASRGIRPVGRF-NH2
notes: synthetic peptide
- % of PrRP31 [1]: 277%
- Ki [1]: 0.00178 µM

B9: analog no. 26 (peptide)
peptide: Myristoyl-[dF][dR]GVPRIGRGTYWAPNIDPT-NH2
SMILES: CCCCCCCCCCCCCC(=O)N[C@H](Cc1ccccc1)C(=O)N[C@H](CCCNC(=N)N)C(=O)NCC(=O)N[C@H](C(=O)N1CCC[C@H]1C(=O)N[C@@H](CCCNC(=N)N)C(=O)N[C@H](C(=O)NCC(=O)N[C@@H](CCCNC(=N)N)C(=O)NCC(=O)N[C@H](C(=O)N[C@@H](Cc1ccc(O)cc1)C(=O)N[C@@H](Cc1c[nH]c2ccccc12)C(=O)N[C@@H](C)C(=O)N1CCC[C@H]1C(=O)N[C@@H](CC(N)=O)C(=O)N[C@H](C(=O)N[C@@H](CC(=O)O)C(=O)N1CCC[C@H]1C(=O)N[C@H](C(N)=O)[C@@H](C)O)[C@@H](C)CC)[C@@H](C)O)[C@@H](C)CC)C(C)C
notes: scrambled peptide; also called 26 scram
- % of PrRP31 [1]: 1.4%
- Ki [1]: 0.364 µM

B10: analog no. 45 (peptide)
peptide: Palmitoyl-SRTHRHSMEIRTPDINPAWYASRGIRPVGRF-NOMe
SMILES: CCCCCCCCCCCCCCCC(=O)N[C@@H](CO)C(=O)N[C@@H](CCCNC(=N)N)C(=O)N[C@H](C(=O)N[C@@H](Cc1c[nH]cn1)C(=O)N[C@@H](CCCNC(=N)N)C(=O)N[C@@H](Cc1c[nH]cn1)C(=O)N[C@@H](CO)C(=O)N[C@@H](CCSC)C(=O)N[C@@H](CCC(=O)O)C(=O)N[C@H](C(=O)N[C@@H](CCCNC(=N)N)C(=O)N[C@H](C(=O)N1CCC[C@H]1C(=O)N[C@@H](CC(=O)O)C(=O)N[C@H](C(=O)N[C@@H](CC(N)=O)C(=O)N1CCC[C@H]1C(=O)N[C@@H](C)C(=O)N[C@@H](Cc1c[nH]c2ccccc12)C(=O)N[C@@H](Cc1ccc(O)cc1)C(=O)N[C@@H](C)C(=O)N[C@@H](CO)C(=O)N[C@@H](CCCNC(=N)N)C(=O)NCC(=O)N[C@H](C(=O)N[C@@H](CCCNC(=N)N)C(=O)N1CCC[C@H]1C(=O)N[C@H](C(=O)NCC(=O)N[C@@H](CCCNC(=N)N)C(=O)N[C@@H](Cc1ccccc1)C(=O)NOC)C(C)C)[C@@H](C)CC)[C@@H](C)CC)[C@@H](C)O)[C@@H](C)CC)[C@@H](C)O
- % of PrRP31 [2]: 92%

Second part, the binder after the results:

- % of PrRP31 [1]: 1200%
- Ki [1]: 0.00041 µM
B2: analog no. 47 (peptide)
peptide: Palmitoyl-SRAHQHSMETRTPDINPAWYTGRGIRPVGRF-NH2
SMILES: CCCCCCCCCCCCCCCC(=O)N[C@@H](CO)C(=O)N[C@@H](CCCNC(=N)N)C(=O)N[C@@H](C)C(=O)N[C@@H](Cc1c[nH]cn1)C(=O)N[C@@H](CCC(N)=O)C(=O)N[C@@H](Cc1c[nH]cn1)C(=O)N[C@@H](CO)C(=O)N[C@@H](CCSC)C(=O)N[C@@H](CCC(=O)O)C(=O)N[C@H](C(=O)N[C@@H](CCCNC(=N)N)C(=O)N[C@H](C(=O)N1CCC[C@H]1C(=O)N[C@@H](CC(=O)O)C(=O)N[C@H](C(=O)N[C@@H](CC(N)=O)C(=O)N1CCC[C@H]1C(=O)N[C@@H](C)C(=O)N[C@@H](Cc1c[nH]c2ccccc12)C(=O)N[C@@H](Cc1ccc(O)cc1)C(=O)N[C@H](C(=O)NCC(=O)N[C@@H](CCCNC(=N)N)C(=O)NCC(=O)N[C@H](C(=O)N[C@@H](CCCNC(=N)N)C(=O)N1CCC[C@H]1C(=O)N[C@H](C(=O)NCC(=O)N[C@@H](CCCNC(=N)N)C(=O)N[C@@H](Cc1ccccc1)C(N)=O)C(C)C)[C@@H](C)CC)[C@@H](C)O)[C@@H](C)CC)[C@@H](C)O)[C@@H](C)O

- % of PrRP31 [2]: 61%
- Ki [2]: 6.37 nM
B5: analog no. 48 (peptide)
peptide: SRTHRHSMEIK(Palmitoyl)TPDINPAWYASRGIRPVGRF-NH2

- % of PrRP31 [2]: 90%
- Ki [2]: 4.34 nM
B7: analog no. 49 (peptide)
peptide: TPDIK(Palmitoyl)PAWYASRGIRPVGRF-NH2
modifications: N-terminus assumed
SMILES: CCCCCCCCCCCCCCCC(=O)NCCCC[C@H](NC(=O)[C@@H](NC(=O)[C@H](CC(=O)O)NC(=O)[C@@H]1CCCN1C(=O)[C@@H](N)[C@@H](C)O)[C@@H](C)CC)C(=O)N1CCC[C@H]1C(=O)N[C@@H](C)C(=O)N[C@@H](Cc1c[nH]c2ccccc12)C(=O)N[C@@H](Cc1ccc(O)cc1)C(=O)N[C@@H](C)C(=O)N[C@@H](CO)C(=O)N[C@@H](CCCNC(=N)N)C(=O)NCC(=O)N[C@H](C(=O)N[C@@H](CCCNC(=N)N)C(=O)N1CCC[C@H]1C(=O)N[C@H](C(=O)NCC(=O)N[C@@H](CCCNC(=N)N)C(=O)N[C@@H](Cc1ccccc1)C(N)=O)C(C)C)[C@@H](C)CC

- % of PrRP31 [2]: 69%
- Ki [2]: 5.64 nM
B8: analog no. 50 (peptide)
peptide: TPDINPK(Palmitoyl)WYASRGIRPVGRF-NH2
modifications: N-terminus assumed
SMILES: CCCCCCCCCCCCCCCC(=O)NCCCC[C@H](NC(=O)[C@@H]1CCCN1C(=O)[C@H](CC(N)=O)NC(=O)[C@@H](NC(=O)[C@H](CC(=O)O)NC(=O)[C@@H]1CCCN1C(=O)[C@@H](N)[C@@H](C)O)[C@@H](C)CC)C(=O)N[C@@H](Cc1c[nH]c2ccccc12)C(=O)N[C@@H](Cc1ccc(O)cc1)C(=O)N[C@@H](C)C(=O)N[C@@H](CO)C(=O)N[C@@H](CCCNC(=N)N)C(=O)NCC(=O)N[C@H](C(=O)N[C@@H](CCCNC(=N)N)C(=O)N1CCC[C@H]1C(=O)N[C@H](C(=O)NCC(=O)N[C@@H](CCCNC(=N)N)C(=O)N[C@@H](Cc1ccccc1)C(N)=O)C(C)C)[C@@H](C)CC
